# From patent US11859229B2, “Polyvinyl alcohol-degrading enzyme and process for producing the same” (Hayashibara Co., Ltd., priority 2017, dated 2024)
# B1: PVA-B: purified PVA-degrading hybrid enzyme from Pseudomonas sp. VT1B strain, amino acid sequence of SEQ ID NO: 3 (protein, listed as Pseudomonas sp.)
# chain: AENWPMFGKNYENSRATADTQLSTSNISSLNVVRRTADGGITGTPTVVDGVAYYSDFSGYVKAVRVNDGAVLWRVRPQTTMLSPSPFVTDDTVYVAGNNSYVYALNRLDGAVRWTTQIETSPNSRISSSPIVVDNILMIGTGSYQVFIPATPMFRGRVVFLNATTGAILPYSTNMCPEGLCGGGISVWSTAAVDVSTRTGYIGTGQAYRDPAGPYSDSLVAFDIDTGAIRWSQQFLANDVYQLGGVLRYDYDVGAAPNLFVADERRMVGVGGKDGTYRAFDRDTGAPIWTTPVGRGSPIGGVMQSTAYGDGRIYVTSNTSTIGGGRNDPVPATAEALALDAATGTPVWIRQLDAGGFGGVAYANGLMYASVWDGRMRVFNAANGNIVKEVQVSPSRGVYVAAPTDGFPNGSAGGPIVYGNRVLMGYGWTWVLNISGGLATMELVSGGGETQTVTLASNQDTYVQSGTPTTSYNANEFLLARLADAEGLTRASFLQFPLTAIPAGTITSARLRLYGRHDAPTGTGQPVSVWPGTFTTPWNGADVIYNNSDLVTGVNFYLTSPIANALIGITPQYYEWDVTGYVDSRRALGHATFGVAVDYGHLYRVTFNSADNAANRPELVVAVSTGGTSEPDPELPPGSMEGSCPAGFTPRAGVNQGFIHNGVARGFVLNVPANVSTPRPMFVSLTGSVESTNENLGPRGGAGALTNDGFLVIGPVRRCAGQDPNGSGTSVGGGTCNQPGTGGWNWNPWNEGRAFGAAGDQWKTAEGPDSEFLESVARCVAKRFPVDSKRMYLGGISSGGTLTNRALLFNSDFWAGGLPISGEWYVTRDDGTAYPGPDEFAARRQAVIDDPTKIFQGRVGPLPLRSTLDPMIVITVWGGTNDVWSCDGVTLCADYRPSTQVASNYFSAQPNVVHVACSSSHGHQWPTINRAAFNTWAATTLASHPKGTPASAFVLPPPPAGYTCRIGPYIDHYERACSVDGDGDIDRNDIAVITAARNQPASGPTDLRDVDRSGVIDVNDARACTLRCDRPNCAVQ
# Assays:
# Assay type in all cases: biochemical
# [1] = Assay for PVA-oxidizing activity (hydrogen peroxide formation, titanium reagent, A410)
# Protocol: As shown in the above (1), the PVA-degrading enzyme of the present invention has an PVA-oxidizing activity, i.e., an activity of catalyzing the reaction of oxidizing PVA as substrate and forming hydrogen peroxide. For example, the PVA-oxidizing activity can be measured by the following method.
# To 0.5 mL of a substrate solution prepared by dissolving PVA (Reagent grade polyvinyl alcohol, polymerization degree: 2,000, Nacalai Tesque Inc., Kyoto, Japan) into 100 mM sodium phosphate buffer (pH 7.0) to give a concentration of 2% (w/v), 15 µL of 2% (w/v) of sodium azide solution was added, and then 0.5 mL of an enzyme solution is further added and reacted with shaking at 27° C. for 60 min. After the 60 min-reaction, the reaction was stopped by mixing 0.32 mL of the reaction mixture to 0.8 mL of a titanium reagent, and the yellow color, produced by reacting hydrogen peroxide formed by the enzyme reaction and the titanium reagent, was measured by measuring the absorbance at 410 nm (A410) as an index. Separately, the enzyme solution was added to the substrate solution, and the resulting mixture is immediately mixed with the titanium reagent. The resulting mixture was similarly measured its color and the value was used as the value at the reaction zero minutes. Then, the amount of the formed hydrogen peroxide is determined and the PVA-oxidizing activity is calculated based on the following formula. It is known that the absorbance at 410 nm (A410) increases by “1” when 3.65 […]mole/mL of hydrogen peroxide is formed. Therefore, in the following Formula 1, the coefficient of “3.65” has been multiplied. One unit of the PVA-oxidizing activity is defined as the amount of enzyme that forms 1 […]mole of hydrogen peroxide per min under the above conditions. Titanium reagent is prepared by diluting 5% titanium sulfate (IV) solution, commercialized by Nacalai Tesque Inc., Kyoto, Japan, 25-fold with 10% (w/w) sulfuric acid.
# [2] = Detection of β-diketone hydrolyzing activity (acetone from 2,4-pentanedione by gas chromatography); design: key: Yes: Acetone, a product by the hydrolysis, was qualitatively detected; conditions: qualitative
# Description: As shown in the above (2), the PVA-degrading enzyme of the present invention has an activity of hydrolyzing […]-diketone, i.e., […]-diketone-hydrolyzing activity. Enzymes having β-diketone-hydrolyzing activity can hydrolyze an oxidized PVA having a […]-diketone structure (i.e., oxidized PVA). Beta-diketone-hydrolyzing activity can be detected by examining the activity of hydrolyzing 2, 4-pentanedione which is a model compound of oxidized PVA having a […]-diketone structure. Acetone and acetic acid are formed when a PVA-degrading enzyme hydrolyzes 2,4-pentanedione. Therefore, for example, […]-diketone-hydrolyzing activity can be detected by the following method using 2,4-pentanedione as a substrate.
# 2,4-Pentanedione (Reagent grade, commercialized by Wako Pure Chemical Industries Co., Ltd., Osaka, Japan) was added to 50 mM sodium phosphate buffer (pH 7.0) to give a concentration of 0.2% (w/v) to make into a substrate solution. To 1 mL of the substrate solution, 0.2 mL of enzyme solution and 0.8 mL of 50 mM sodium phosphate buffer (pH 7.0) were added and then the mixture was shaken at 27° C. for 3 hours for the reaction. After the reaction, 2 mL of the reaction mixture was withdrawn and put in a glass vial, and then the vial was sealed and heated at 95° C. for 40 min. […]
# [3] = PVA-degrading (viscosity-reducing) activity; conditions: at each purification step
# Protocol: While, activity as a PVA-degrading enzyme can be measured, for example, by measuring the viscosity reduction of a PVA solution, caused by the degradation of PVA, as an index using the following method.
# To 0.5 mL of a substrate solution prepared by dissolving PVA (Reagent grade polyvinyl alcohol, polymerization degree: 2,000, Nacalai Tesque Inc., Kyoto, Japan) into 100 mM sodium phosphate buffer (pH 7.0) to give a concentration of 2% (w/v), 15 µL of 2% (w/v) of sodium azide solution was added, and then 0.5 mL of an enzyme solution is further added and reacted with shaking at 27° C. for 60 min. After the reaction, 0.6 mL of the reaction mixture was withdrawn and its viscosity was measured using a Cone plate-type viscometer (“DV-II+Pro”, Brookfield Co., Ltd.) at 30° C. Separately, the enzyme solution was added to the substrate solution and the viscosity was measured immediately, and the viscosity was used as that at zero-min reaction. The PVA-degrading activity was calculated based on the following formula. One unit of the PVA-degrading activity was defined as the amount of enzyme that causes a 10%-reduction of relative viscosity per min under the above conditions. […]
# [4] = Optimum temperature and optimum pH of PVA-oxidizing activity
# Protocol: To 0.5 mL of a substrate solution prepared by dissolving PVA (Reagent grade polyvinyl alcohol, polymerization degree: 2,000, Nacalai Tesque Inc., Kyoto, Japan) into 100 mM sodium phosphate buffer (pH 7.0) to give a concentration of 2% (w/v), 15 µL of 2% (w/v) of sodium azide solution was added, and then 0.5 mL of an enzyme solution is further added and reacted with shaking at 27° C. for 60 min. After the 60 min-reaction, the reaction was stopped by mixing 0.32 mL of the reaction mixture to 0.8 mL of a titanium reagent, and the yellow color, produced by reacting hydrogen peroxide formed by the enzyme reaction and the titanium reagent, was measured by measuring the absorbance at 410 nm (A410) as an index. Separately, the enzyme solution was added to the substrate solution, and the resulting mixture is immediately mixed with the titanium reagent. The resulting mixture was similarly measured its color and the value was used as the value at the reaction zero minutes. Then, the amount of the formed hydrogen peroxide is determined and the PVA-oxidizing activity is calculated based on the following formula. It is known that the absorbance at 410 nm (A410) increases by “1” when 3.65 […]mole/mL of hydrogen peroxide is formed. Therefore, in the following Formula 1, the coefficient of “3.65” has been multiplied. […]
# [5] = Thermal stability and pH stability (residual PVA-oxidizing activity)
# Protocol: To 0.5 mL of a substrate solution prepared by dissolving PVA (Reagent grade polyvinyl alcohol, polymerization degree: 2,000, Nacalai Tesque Inc., Kyoto, Japan) into 100 mM sodium phosphate buffer (pH 7.0) to give a concentration of 2% (w/v), 15 µL of 2% (w/v) of sodium azide solution was added, and then 0.5 mL of an enzyme solution is further added and reacted with shaking at 27° C. for 60 min. After the 60 min-reaction, the reaction was stopped by mixing 0.32 mL of the reaction mixture to 0.8 mL of a titanium reagent, and the yellow color, produced by reacting hydrogen peroxide formed by the enzyme reaction and the titanium reagent, was measured by measuring the absorbance at 410 nm (A410) as an index. Separately, the enzyme solution was added to the substrate solution, and the resulting mixture is immediately mixed with the titanium reagent. The resulting mixture was similarly measured its color and the value was used as the value at the reaction zero minutes. Then, the amount of the formed hydrogen peroxide is determined and the PVA-oxidizing activity is calculated based on the following formula. It is known that the absorbance at 410 nm (A410) increases by “1” when 3.65 […]mole/mL of hydrogen peroxide is formed. […]
# In the two purified preparations of the PVA-degrading enzyme, PVA-A was used for investigating thermal stability and pH stability using PVA-oxidizing activity as an index according to the assay method. Thermal stability was determined by the steps of incubating the enzyme solution (in 10 mM phosphate buffer, pH 7.0) at various temperature for 60 min, cooling in water, and then measuring the residual enzyme activity. pH Stability was determined by the steps of incubating the enzyme solution in 100 mM buffer with different pH at 4° C. for 24 hours, adjusting pH to 7.0, and then measuring the residual enzyme activity. […] In FIG. 6, symbols, “●”, “▪”, “▴” and “♦”, mean values measured by using acetate buffer, phosphate buffer, glycine-NaOH buffer, and potassium chloride-NaOH buffer, respectively, for pH control.
molecule,measurement,setting,value
B1,Specific activity,[1]; PVA-oxidizing activity per mg protein at each purification step,1.9 U/mg
same,Total Activity (PVA-oxidizing activity),"[1]; at each purification step, from 4 L culture supernatant",3.3 U
same,"2,4-Pentanedione-Degrading Activity",[2],Yes*
same,Total PVA-Degrading Activity (Viscosity-reducing Activity),[3],8.4 U
same,Optimum pH of PVA-oxidizing activity,[4]; 60 min-reaction at 27° C.,almost the same
same,Optimum temperature of PVA-oxidizing activity,[4]; 60 min-reaction at pH 7.0,almost the same
same,Thermal stability of PVA-oxidizing activity,"[5]; 10 mM phosphate buffer, pH 7.0, 60 min",almost the same
same,pH stability of PVA-oxidizing activity,"[5]; 100 mM buffer, 4° C. for 24 hours",almost the same
